The nature of the data set: soluble on expression in E. coli; label from the status in PepcDB or PDB records.
For “MAHHHHHHSLENKGTNLTPEQALDRLEELYEQSVNALREAIADYVDNGTLPDPHARLNGLFVYPSLSVSWDGATPNPPKTRAFGRFTHPGCYTTTVTRPALFRAYLLEQLNLVYHDYGAHIAVEASHHEIPYPYVIDGSALTLDRSMSAGLTRHFPTTELAQIGDETADGLFHPGEFYPLSHFDARRVDFSLARLRHYTGTPVEHFQPFVLFTNYTRYVDEFVRWGCSQILDPDSPYIALSCAGGIWITAETEAPEEAISDLAWKKHQMPAWHLVTADGQGITLVNIGVGPSNAKTICDHLAVLRPDVWLMIGHCGGLRESQAIGDYVLAHAYLRDDHVLDAVLPPDIPIPSIAEVQRALYDATKAVSGMPGEEVKQRLRTGTVVTTDDRNWELRYSASALRFNLSRAVAIDMESATIAAQGYRFRVPYGTLLCVSDKPLHGEIKLPGQANRFYEGAISEHLQIGIRAIDLLRAEGDRLHSRKEG”, the “soluble on expression in E. coli” value was “soluble”.
To “MKKLLLTLVSSSLLVACSQRTESMEDKSIAPCGDKPNCISTLDEREEFTVKPFILTSSANMKAISHIASQLKGAKLVDINNDYARIECTSSVFRFVDDLELRIYGNTLIVRSESRTGYSDFGVNRKRVEKLRTLLEEKGLISQLEHHHHHH” belongs “not soluble”; to “MAHHHHHHMCHLCDVPVITPDKGVIQSGCGLHPKKTLGNGGAGGVHPGKNTTQETGFPTTGGPNNQHIHLRLCDLVLPRVEYNILPQIFRGVNRDLRHSWSILGGQCGTVKVRRVSLQHAVGATRLHVSVQETAPPFPLHGVTPPLHPLCGAHKLDGQFTDTAGQRTTRPLYTSHTRRIPTAFSLFYSPFFCVPSSNRAPSSSALHVPLTRRWQKGRRRLGTSHARTPRPHSPK”, “not soluble”.
Regarding “MAHHHHHHMSTEPTPRVIVFDLDGTLWRPEMYELWGGGAPFMLSKDNSSIAIDKKGTEVRLIGQTRELLQMLSTTEEWRNTHLAISSTCDEPRWAMELLQLFRFRDKRGNDVPMLSLFGDLVEIYKANKKNQHRTILKKVKEHDPTVRGDFSDFIFFDNQQDNIGHVSSIGVTSIYCPNGMVGGVFERGLKEWRDKEKKRAL”, the “soluble on expression in E. coli” value was “soluble”.
To “MIENIMSLQKGLPEEISALEEDLAFTSRQIEARKKIADERQKLRERLNSVIHDCKEKIKSFKEKQTLARNNKEYDALSKQIEYEEKEIAQAEIQLQDISHAEHHAQELQKKGRELIAENRYDEISEEMMPDDVLQQQMEDLGQQVRQKKEELESIVVETAEEVAQLKAVLSEQRSVVAQQAKRLLDKYDHLKSGSIQNAVVKLDRQACSGCNTRVPTNRHTLIVQGGFYVCESCGRIVVHERLFDEAAASGQQ” belongs “not soluble”; to “AIATDSASLQFVSPYAFEAMQKVDVARLAALSDPELRLLLPCLVRMALCAPADQSNAWAQDKKLILRLLSGVEAVNSIVALLSVDFHALEQDARKEQQLRHKAGGSNGESILVSQLQHGLTLEFEHSDPLRRLRLALSELLAIMNKVQCPFIYSCIGMLIRVIFPTGAH”, “soluble”; to “MRRSKMTYLIGVDCGGTHIVGQTWTTAPEHLVQSVTGGPGNVVLDYSAAVTNLTTVLDQLTAAIPASQLGLILIGIAGIETAGRADQVQQTITQRYHANTQVISDAKLALLNGLAGADGALVIAGTGSVVYGRQAGKFLRVGGWGYVLGDEGSAYDISKRALKQVLTQTDNGQTSQLTAPLLAQLKVTDIAAAVQKFYAQDRQTNAQLAQLIAKLAEQQNSEAITVLVTSAQALAQQVVTLYQRFAESWPQRVALSGSVLQHNRLVRDTLTTTVHQSIPTIAFNDITTNNAHAVIYWHRWTQEEINSLEHHHHHH”, “not soluble”.
“MSLYQEFFTFIPVDIEELDKAFGGGLIRGATISIMYDAFSLGWALGFEMVKNLIRRNSFGVIHNYNLPTIKLISRASFVGLNIQELAKRKEIMILDVFGSKYDVPPYADYVLQVPNPTPETLNPKIESVYENKIFQVAGDRRIVKLVYTLDGVATMFGEEVAIKLLNGELAWLAKMYGKRNVMTILLLNVDMVSKKFIAWTSGVSDIVITFQSLTEEREGELVERMTVIKSLNPEFEPTSYEFRVTATGTGSHALDFRKIENEGHHHHHH”: the “soluble on expression in E. coli” value is given as “not soluble”.
To “MGSDKIHHHHHHMKTIEVLSLRKYFPIRKGFLVKKIVGYVKAVDDISFSVEKGKTFALVGESGCGKTTTAKTILRLTNPTAGRVVIDGDDTTYYFMKRRDAENYLETTYVDIFREMREKLSPDQIVDVLEDVDKKYAEIFFKEAKESEEKFYQILLDDIDEKRMKFRRKIQIVFQDPMSSLNPRMTVGDILTEPILFHGLAKTREEAVDMAKDLLKSVGLKEYHLERYPHQFSGGQRQRIAIARAISINPEIVILDEPTASLDVSVQAQVINLFLKLQEEKGFTYLFISHDLGLVRFISHEVGIMYLGRIVEMGNTDEIFDNPLHPYTQALLSAVPVPDPKVERTRKRIILRGGVPSPINRPTGCFFHPRCPYKMPVCEKEYPVMKEISPGHWVACHLHSS” belongs “not soluble”; to “MINKTKEKLILIGMPGSGKTTIGKLLAKEYNCSFCDMDDYIIQISQKSIAELFSEGEDIFRNYETQACRELSISDKTVISTGGGVIKKDVNMEILKETGIIIFIDRPIQKILEDININSRPLLKNGKDRLYNLYNERINLYKKFSDIEILNDKSLNNAVYNITNAVSENFKFDFKEK”, “not soluble”; to “SRPRLSQLSVTDVTTSSLRLNWEAPPGAFDSFLLRFGVPSPSTLEPHPRPLLQRELMVPGTRHSAVLRDLRSGTLYSLTLYGLRGPHKADSIQGTARTL”, “soluble”.
Consider “MKAERILGALYGQALGDAMGMPSELWPRTRVKAHFGWIDRFLPGPKENNAACYFNRAEFTDDTAMALCLADALLECEGNIDPEIIGRNILAWAERFDAFNKNVLGPTSKIALNAIRDGKPIAALENNGVTNGAAMRVSPLGCLLPPTNLTAFIAEVALASSPTHKSDLAVAGAVVVAWAVSRAVNGDTWQSIADSLPAVAHQAQTARITTFSASLSARLELALNIVRHADGVESASEQLYQIIGAGTSTIESVPCAIAMVELANTDPNRCAVLCANLGGDTDTIGAMATAICGALHGVSAINPQLKQTLDEVNQLDFARYAVALASYRQRREALLEHHHHHH”, for which the “soluble on expression in E. coli” value is “soluble”.
To “MAHHHHHHMGDESNAIGQEALLYDKMFRVMRTVGEMMCDRKYQVADKIIPSSVEEFKDWYTDPREGVIYRDRMTVPCERIGVSQRSRAMVFFSEGLSMETMKRYHTQASEANCDRVIIVVQGRINAIVKRHVEDINRSSLGLKIQLFDEDDLVVNITHHELVPKHTQLEDEEVKEMLQAHALELSALPRILSTDPVAAYLGLERGRVVRIERKSMSAGFYVTYRQVV” belongs “not soluble”; to “MMNKLPHETRVVIGMSGGVDSSVAALLLKEQGYDVIGIFMKNWDDTDENGVCTATEDYNDVIEVCNQIGIPYYAVNFEKQYWDKVFTYFLDEYRAGRTPNPDVMCNKEIKFKAFLEHAIALGADYVATGHYARVAYMDGEYKMLRGVDDNKDQTYFLNQLSQEQLSKTMFPLGELKKPQIREMAKEAGLATAAKKDSTGICFIGERNFKDFLSNYLPAQPGVMQTLSGEVKGKHDGLMYYTIGQRHGLGIGGNGDPWFAVGKNLKENILYVDQGFHNELLYGDEVIATNVGWVSNKEKETEFKCTAKFRYRQEDNKVTVQIVDENTVRILCDEPIRAITPGQAVVFYDGDECLGGATIDEVYRSGKKLDYLG”, “not soluble”.
To “GPGSMSVRIRFILTGACPPSYSGKQVQLNFPLEDENGAPTTTAHLKQLIRTQWPENMSEMKEVVEKTEMRVLKTGNLLSDDTQIRSVLTATELSECSINPSAEGSGRADEDQKSVLMHLVFQSNQSQGRQRDGSAGGGRRDNASHDSGCCTML” belongs “soluble”; to “MSLSLLLQQHLSQPWRFLDHTSFGPTFQALQSFAYDDTLCTSIGKSQSPPTLRAWVHHNTVVLGIQDSRLPQIKAGIEALKGFQHDVIVRNSGGLAVVLDSGILNLSLVLKEEKGFSIDDGYELMYELICSMFQDHREQIEAREIVGSYCPGSYDLSIDGKKFAGISQRRIRGGVAVQIYLCVSGSGAERAKMIRTFYDKAVAGQPTKFVYPRIKPETMASLSELLGQPHNVSDVLLKALMTLQQHGASLLTESLSADEWLLYEQHFARISERNEKLLAEEGHHHHHH”, “soluble”.
To “MIILIRYGPIDVTYCRMKRGFMYMVAIIDWYSRYIVGFELSNTLDKTFVIEAIQKAIKRYGKPEIMNSDQGSQFTSDDYINLLKNNGIKISMDGKGRALDNQRIERFFRSYKWEKLYLEECETVQQLRQITKEYVEHYNHRRPHQSLDYKTPAEYYFGGYDQLLAVV” belongs “not soluble”; to “MGSDKIHHHHHHATASESSKYIGLQLYSLRDLVKEEGIQKVLETAAKMGYKNLETASYDNGKIYGLAPAEFKKMVNDLGMKCTSAHLGQAFTKEKEAEVMSWWDQAIDAHNELGVKYMVQPWMPVNDKTTLDDLKMYCDYFNTVGYKTAAASIAFGYHNHDFEFRKIDDQLIYDFLLDNVSPNHVFFEMDVYWVMMGGGDPVAYLKNRPSQFKAIHIKDEKEIGASGKMNFKPIFDQMYANNVKDWYVEVEQYTNNDPVASVQQSYDFLNKADYVK”, “not soluble”.
With “GPGSMSSSDQFLVDELRSRLKRRRADIVRYLDGLFYEDCRRIIECVSELDSDNLFLRNPSSLPDYAQHVTRPMYWELIQRKLQRYEYRAAADFMADMRAVVNNCYLYNGIQAPASKLARAIEVLMEDRFVTELRAAPVQPAEVK”, the “soluble on expression in E. coli” value is “not soluble”.
To “MDTSSVGGLELTDQTPVLLGSTAMATSLTNVGNSFSGPANPLVSRSNKFQNSSVEDDDDVVFIEPVQPPPPSVPVVADQRTITFTSSKNEELQGNDSKITPSSKELASQKGSVSETIVIDDEEDMETNQGQEKNSSNFIERRPPETKNRTNDVDFSTSSFSRSKTKTGVGPFNPGRMNVAGDVFQNGESATHHNPDSWISQSASFPRNQKQPGVDSLSPVASLPKQIFQPSVQQQPTKPVKVTCANCKKPLQKGQTAYQRKGSAHLFCSTTCLSSFSHKPAPKKLCVMCKKDITTMKGTIVAQVDSSESFQEFCSTSCLSLYEDKQNPTKGALNKSRCTICGKLTEIRHEVSFKNMTHKLCSDHCFNRYRMANGLIMNCCEQCGEYLPSKGAGNNVLVIDGQQKRFCCQSCVSEYKQVGSHPSFLKEVRDHMQDSFLMQPEKYGKLTTCTGCRTQCRFFDMTQCIGPNGYMEPYCSTACMNSHKTKYAKSQSLGIICHFCKRNSLPQYQATMPDGKLYNFCNSSCVAKFQALSMQSSPNGQFVAPSDIQLKCNYCKNSFCSKPEILEWENKVHQFCSKTCSDDYKKLHCIVTYCEYCQEEKTLHETVNFSGVKRPFCSEGCKLLYKQDFARRLGLRCVTCNYCSQLCKKGATKELDGVVRDFCSEDCCKKFQDWYYKAARCDCCKSQGTLKERVQWRGEMKHFCDQHCLLRFYCQQNEPNMTTQKGPENLHYDQGCQTSRTKMTGSAPPPSPTPNKEMKNKAVLCKPLTMTKATYCKPHMQTKSCQTDDTWRTEYVPVPIPVPVYIPVPMHMYSQNIPVPTTVPVPVPVPVFLPAPLDSSEKIPAAIEELKSKVSSDALDTELLTMTDMMSEDEGKTETTNINSVIIETDIIGSDLLKNSDPETQSSMPDVPYEPDLDIEIDFPRAAEELDMENEFLLPPVFGEEYEEQPRPRSKKKGAKRKAVSGYQSHDDSSDNSECSFPFKYTYGVNAWKHWVKTRQLDEDLLVLDELKSSKSVKLKEDLLSHTTAELNYGLAHFVNEIRRPNGENYAPDSIYYLCLGIQEYLCGSNRKDNIFIDPGYQTFEQELNKILRSWQPSILPDGSIFSRVEEDYLWRIKQLGSHSPVALLNTLFYFNTKYFGLKTVEQHLRLSFGTVFRHWKKNPLTMENKACLRYQVSSLCGTDNEDKITTGKRKHEDDEPVFEQIENTANPSRCPVKMFECYLSKSPQNLNQRMDVFYLQPECSSSTDSPVWYTSTSLDRNTLENMLVRVLLVKDIYDKDNYELDEDTD” belongs “soluble”.

The values above are taken from the DeepSol protein solubility set.
